These results are taken from US20200148757A1 (KOREA ADVANCED INSTITUTE OF SCIENCE AND TECHNOLOGY, published 2020).

The target of assay [1] is T1, Cetuximab-VEGF-Grab.
T1 construct: Made in Freestyle293F cells and purified on Protein A; also called Cet-Grab; scFv-Cetuximab-VEGF-Grab
Briefly: BLI (BLItz), biotinylated VEGF-A on streptavidin biosensor, 1:1 model.
Protocol: (§1) Thereafter, to measure the dissociation rate (koff), each reaction product was allowed to react in a PBS buffer for 2 minutes. The final dissociation constant was calculated as a ratio of koff/kon. Sensorgrams were analyzed with the global fitting function using a 1:1 binding model (grouped by color and Rmax).

The target of assay [2] is T1, Cetuximab-VEGF-Grab. Briefly: BLI; EGFR ECD pre-bound to Cet-Grab, then VEGF-A (reverse order); EGFR ECD pre-bound to Cet-Grab.
In assay [3] the target is T1, Cetuximab-VEGF-Grab. The assay is described as follows: BLI (BLItz), biotinylated P1GF on streptavidin biosensor, 1:1 model.
Protocol: as §1
For assay [4], the target named is T1, Cetuximab-VEGF-Grab. The assay is described as follows: BLI; EGFR ECD pre-bound to Cet-Grab, then P1GF (reverse order); EGFR ECD pre-bound to Cet-Grab.

B1: human VEGF-A (ligand)
chain: APMAEGGGQNHHEVVKFMDVYQRSYCHPIETLVDIFQEYPDEIEYIFKPSCVPLMRCGGCCNDEGLECVPTEESNITMQIMRIKPHQGQHIGEMSFLQHNKCECRPKKDRARQENPCGPCSERRKHLFVQDPQTCKCSCKNTDSRCKARQLELNERTCRCDKPRR
notes: also called hVEGF-A
With B1, the Kd with Cetuximab-VEGF-Grab [1] is 1.04 nM; with Cetuximab-VEGF-Grab [2], 1.17 nM.

B2: human P1GF (ligand)
chain: LPAVPPQQWALSAGNGSSEVEVVPFQEVWGRSYCRALERLVDVVSEYPSEVEHMFSPSCVSLLRCTGCCGDENLHCVPVETANVTMQLLKIRSGDRPSYVELTFSQHVRCECRPLREKMKPERCGDAVPRR
notes: also called PlGF; placental growth factor
B2: the Kd amounted to 1.59 nM with Cetuximab-VEGF-Grab [3] and 1.11 nM in the assay with Cetuximab-VEGF-Grab [4].

As usually defined, the Kd is the free concentration of one partner at which half of the binding sites on the other are occupied at equilibrium, for simple one-to-one binding. Read a high Kd as weaker binding.
